The values below come from publication PMC9120032, “SARS-CoV-2 ORF6 disrupts nucleocytoplasmic trafficking to advance viral replication” (Communications Biology, 2022).

Assay [1] concerns the target T1, bacterially purified recombinant STAT1 protein (human, UniProt P42224 1-750).
T1 construct: human STAT1, full length, subcloned into pGEX6P2 from the pcDNA5/FRT/3xFLAG expression vector; The methods tell in general that GST tags were cleaved with PreScission or thrombin; also called STAT1 recombinant protein; Flag-h-STAT1; source: bacterially expressed recombinant protein, purified; not shown: Flag, N-terminal, kept
T1 sequence: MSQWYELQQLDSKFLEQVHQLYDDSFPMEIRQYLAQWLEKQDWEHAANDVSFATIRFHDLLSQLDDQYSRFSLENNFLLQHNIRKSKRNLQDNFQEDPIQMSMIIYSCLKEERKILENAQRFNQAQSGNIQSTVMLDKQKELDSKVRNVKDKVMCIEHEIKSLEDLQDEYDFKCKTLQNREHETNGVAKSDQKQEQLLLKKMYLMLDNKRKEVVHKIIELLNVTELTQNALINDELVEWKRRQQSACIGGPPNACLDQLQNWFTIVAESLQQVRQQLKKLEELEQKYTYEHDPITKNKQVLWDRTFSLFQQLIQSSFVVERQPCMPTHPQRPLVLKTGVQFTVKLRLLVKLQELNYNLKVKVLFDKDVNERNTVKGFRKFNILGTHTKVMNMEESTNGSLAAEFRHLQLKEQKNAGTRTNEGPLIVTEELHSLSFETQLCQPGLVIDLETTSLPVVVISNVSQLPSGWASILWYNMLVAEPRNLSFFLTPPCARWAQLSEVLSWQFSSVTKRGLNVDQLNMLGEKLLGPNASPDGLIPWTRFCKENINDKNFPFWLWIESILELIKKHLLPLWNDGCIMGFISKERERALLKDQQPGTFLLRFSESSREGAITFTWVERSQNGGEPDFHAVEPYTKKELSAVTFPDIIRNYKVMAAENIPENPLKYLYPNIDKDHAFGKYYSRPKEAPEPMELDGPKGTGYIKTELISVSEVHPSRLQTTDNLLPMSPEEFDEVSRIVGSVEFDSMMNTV
Put plainly: pull-down; GST fusion proteins immobilised on glutathione-Sepharose 4B beads; recombinant proteins (100 pmol each) in 200 μL transport buffer (20 mM HEPES pH 7.3, 110 mM potassium acetate, 2 mM magnesium acetate, 1 mM EGTA, 1 mM DTT) with 0.1% Triton X-100, 4 °C, 1 h; five washes; western blot. To be noted: both partners purified.

Assay [2] deals with T2, Flag-importin α1 recombinant protein (human, UniProt P52292 1-529).
T2 construct: human importin α1 (KPNA2); also called Flag-Impα1; FLAG-h-importin α1; source: bacterially expressed recombinant protein, purified; not shown: FLAG, N-terminal, kept
The description is as above. Particulars: both partners purified.

B1: GST-GFP fused with the C-terminal peptide of ORF6 wild type (49-61 amino acids) (peptide)
chain: YSQLDEEQPMEID
notes: SARS-CoV-2 ORF6, the 13 amino acids 49-61 of the C-terminal region (M0); also called GST-M0-GFP; M0; not shown: GST, N-terminal, kept; GFP, C-terminal, kept
Regarding B1, the binding result in assay [1] is “binds”.

B2: GST-GFP-fused ORF6 full-length protein (natural protein)
chain: MFHLVDFQVTIAEILLIIMRTFKVSIWNLDYIINLIIKNLSKSLTENKYSQLDEEQPMEID
notes: Held on glutathione Sepharose beads by its GST; also called GST-GFP-ORF6; GST-GFP-ORF6 wild type (WT); not shown: GST, N-terminal, kept; GFP, N-terminal, kept
B2: the binding result in assay [2] is “binds”.
